One block for each binder: values may come before it. Where no end group is shown, it is not given here.
Legend:
[1] = molecular target: anti-A016 antibody (Thyroglobulin PET); experiment: peptide competition assay in 6% BSA
[2] = molecular target: anti-A005 antibody (ERK1 PET); experiment: peptide competition assay in 6% BSA
[3] = molecular target: anti-A020 antibody (Troponin I PET); experiment: peptide competition assay in 6% BSA
[4] = molecular target: anti-A003 antibody (TGFbeta1 PET); experiment: peptide competition assay in 6% BSA
[5] = molecular target: anti-A014 antibody (Thyroglobulin PET); experiment: peptide competition assay in 6% BSA
[6] = molecular target: anti-A031 antibody (C3 PET); experiment: peptide competition assay in 6% BSA
[7] = molecular target: anti-A009 antibody (pERK2 PET); experiment: peptide competition assay in 6% BSA
[8] = molecular target: anti-A013 antibody (Thyroglobulin PET); experiment: peptide competition assay in 6% BSA
[9] = molecular target: anti-A007 antibody (ERK2 PET); experiment: peptide competition assay in 6% BSA
[10] = molecular target: anti-A037 antibody (C9 PET); experiment: peptide competition assay in 6% BSA
[11] = molecular target: anti-A012 antibody (Thyroglobulin PET); experiment: peptide competition assay in 6% BSA
[12] = molecular target: anti-A027 antibody (IL-1beta PET); experiment: peptide competition assay in 6% BSA
[13] = molecular target: anti-A023 antibody (PSA PET); experiment: peptide competition assay in 6% BSA
antibody C1 = experiment: peptide competition ELISA: soluble peptide against immobilized target peptide for antibody C1
[14] = molecular target: anti-A045 antibody (Fibronectin PET); experiment: peptide competition assay in 6% BSA
[15] = molecular target: anti-A044 antibody (Fibronectin PET); experiment: peptide competition assay in 6% BSA
[16] = molecular target: anti-A039 antibody (C9 PET); experiment: peptide competition assay in 6% BSA
[17] = molecular target: anti-A028 antibody (IL-1beta PET); experiment: peptide competition assay in 6% BSA
[18] = molecular target: anti-A022 antibody (PSA PET); experiment: peptide competition assay in 6% BSA
[19] = molecular target: anti-A001 antibody (TGFbeta1 PET); experiment: peptide competition assay in 6% BSA
[20] = molecular target: anti-A043 antibody (CRP PET); experiment: peptide competition assay in 6% BSA
[21] = molecular target: anti-A006 antibody (pERK1 PET); experiment: peptide competition assay in 6% BSA
[22] = molecular target: anti-A025 antibody (IL-1beta PET); experiment: peptide competition assay in 6% BSA
[23] = molecular target: anti-A035 antibody (C4 PET); experiment: peptide competition assay in 6% BSA
[24] = molecular target: anti-A021 antibody (PSA PET); experiment: peptide competition assay in 6% BSA
[25] = molecular target: anti-A049 antibody (FactorXII PET); experiment: peptide competition assay in 6% BSA
[26] = molecular target: anti-A026 antibody (IL-1beta PET); experiment: peptide competition assay in 6% BSA
[27] = molecular target: anti-A011 antibody (MEK1 PET); experiment: peptide competition assay in 6% BSA
[28] = molecular target: anti-A046 antibody (Fibronectin PET); experiment: peptide competition assay in 6% BSA
[29] = molecular target: anti-A008 antibody (ERK2 PET); experiment: peptide competition assay in 6% BSA
[30] = molecular target: anti-A047 antibody (Fibronectin PET); experiment: peptide competition assay in 6% BSA
[31] = molecular target: anti-A002 antibody (TGFbeta1 PET); experiment: peptide competition assay in 6% BSA
[32] = molecular target: anti-A024 antibody (IL-1beta PET); experiment: peptide competition assay in 6% BSA
[33] = molecular target: anti-A017 antibody (Troponin I PET); experiment: peptide competition assay in 6% BSA
[34] = molecular target: anti-A034 antibody (C4 PET); experiment: peptide competition assay in 6% BSA
[35] = molecular target: anti-A015 antibody (Thyroglobulin PET); experiment: peptide competition assay in 6% BSA
[36] = molecular target: anti-A010 antibody (MEK1 PET); experiment: peptide competition assay in 6% BSA
[37] = molecular target: anti-A004 antibody (ERK1 PET); experiment: peptide competition assay in 6% BSA

IC50 [1]: 4 nM
Binder: CDEAGQELEGMR-NH2 [A016 peptide (Thyroglobulin), …-NH2]

IC50 [2]: 6 nM
Binder: CVAEEPFTFDMELDD-NH2 [A005 peptide (ERK1), …-NH2]

IC50 [3]: 4 nM
Binder: Ac-NIDALSGMEGRC [A020 peptide (Troponin I), Ac-…]

IC50 [4]: 8 nM
Binder: CYIWSLDTQYSK-NH2 [A003 peptide (TGFbeta1), …-NH2]

IC50 [5]: 5 nM
Binder: CEIYDTIFAGLD-NH2 [A014 peptide (Thyroglobulin), …-NH2]

IC50 [6]: 5 nM
Binder: CHYLDETEQWEK-NH2 [A031 peptide (C3), …-NH2]

IC50 [7]: 31 nM
Binder: Ac-VADPDHDHTGC [A009 peptide (ERK2), Ac-…]

IC50 [8]: 8 nM
Binder: Ac-ELAETGLELLC [A013 peptide (Thyroglobulin), Ac-…]

IC50 [9]: 4 nM
Binder: Ac-IEVEQALAHPYLEQC [A007 peptide (ERK2), Ac-…]

IC50 [10]: 0.5 nM
Binder: CTEHYEEQIEAFK-NH2 [A037 peptide (C9), …-NH2]

IC50 [11]: 10 nM
Binder: Ac-GGQSAESEEEELC [A012 peptide (Thyroglobulin), Ac-…]

IC50 [12]: 5 nM
Binder: CLEFESAQFPNWY-NH2 [A027 peptide (IL-1beta), …-NH2]

IC50 [13]: 8 nM
Binder: CGSIEPEEFLTPK-NH2 [A023 peptide (PSA), …-NH2]

IC50 (antibody C1): 1000 nM
Binder: YEVQGEVF [CRP-derived 8-mer PET YEVQGEVF]

IC50 [14]: 1 nM
Binder: CTFYQIGDSWEK-NH2 [A045 peptide (Fibronectin), …-NH2]

IC50 [15]: 8 nM
Binder: CHEGGQSYK-NH2 [A044 peptide (Fibronectin), …-NH2]

IC50 [16]: 0.4 nM
Binder: Ac-PWNVASLIYETKC [A039 peptide (C9), Ac-…]

IC50 [17]: 0.5 nM
Binder: CENMPVFLGGTK-NH2 [A028 peptide (IL-1beta), …-NH2]

IC50 [18]: 8 nM
Binder: CDLPTQEPALG-NH2 [A022 peptide (PSA), …-NH2]

IC50 [19]: 0.8 nM
Binder: Ac-ALYNQHNPGASAAPC [A001 peptide (TGFbeta1), Ac-…]

IC50 [20]: 4 nM
Binder: CYEVQGEVFTK-NH2 [A043 peptide (CRP), …-NH2]

IC50 [21]: 6 nM
Binder: Ac-IADPEHDHTGC [A006 peptide (ERK1), Ac-…]

IC50 [22]: 5 nM
Binder: Ac-SLVMSGPYELKC [A025 peptide (IL-1beta), Ac-…]

IC50 [23]: 4 nM
Binder: CEANEDYEDYEYDE-NH2 [A035 peptide (C4), …-NH2]

IC50 [24]: 8 nM
Binder: Ac-LSEPAELTDAVKC [A021 peptide (PSA), Ac-…]

IC50 [25]: 15 nM
Binder: CVAGWGHQFEGAEEY-NH2 [A049 peptide (FactorXII), …-NH2]

IC50 [26]: 8 nM
Binder: Ac-PTLQLESVDPKC [A026 peptide (IL-1beta), Ac-…]

IC50 [27]: 23 nM
Binder: CGTSSAETNLEALQK-NH2 [A011 peptide (MEK1), …-NH2]

IC50 [28]: 20 nM
Binder: CTTQNYDADQK-NH2 [A046 peptide (Fibronectin), …-NH2]

IC50 [29]: 6 nM
Binder: CDPSDEPIAEAPFK-NH2 [A008 peptide (ERK2), …-NH2]

IC50 [30]: 10 nM
Binder: Ac-VDVIPVNLPGEHGQRC [A047 peptide (Fibronectin), Ac-…]

IC50 [31]: 3 nM
Binder: Ac-PQALEPLPIVYYVGRC [A002 peptide (TGFbeta1), Ac-…]

IC50 [32]: 0.5 nM
Binder: CNEDDLFFEADGPK-NH2 [A024 peptide (IL-1beta), …-NH2]

IC50 [33]: 10 nM
Binder: Ac-AYATEPHAKC [A017 peptide (Troponin I), Ac-…]

IC50 [34]: 4 nM
Binder: CQTDQPIYNPGQR-NH2 [A034 peptide (C4), …-NH2]

IC50 [35]: 4 nM
Binder: CDFSTPLAHFDLR-NH2 [A015 peptide (Thyroglobulin), …-NH2]

IC50 [36]: 36 nM
Binder: Ac-PTPIQLNPAPDGC [A010 peptide (MEK1), Ac-…]

IC50 [37]: 25 nM
Binder: Ac-ITVEEALAHPYLEQC [A004 peptide (ERK1), Ac-…]

From patent US20060014212A1
